Read-outs that look alike come from different tables or passages of the source.
What was measured:
[1] = molecular target: wild-type heterotrimeric human Gαi1β1γ1 (human) (UniProt P63096); assay: MST
[2] = molecular target: wild-type heterotrimeric human Gαi1β1γ1 (human) (UniProt P63096); assay: MST; remark: listed apart in the source
[3] = molecular target: wild-type heterotrimeric human Gαi1β1γ1 (human) (UniProt P63096); assay: MST; remark: listed apart in the source
[4] = molecular target: wild-type heterotrimeric human Gαi1β1γ1 (human) (UniProt P63096); assay: BLI
[5] = molecular target: wild-type heterotrimeric human Gαi1β1γ1 (human) (UniProt P63096); assay: MST; remark: listed apart in the source

wild-type heterotrimeric human Gαi1β1γ1 (human), sequence (P63096 whole entry, chain 1 of 3): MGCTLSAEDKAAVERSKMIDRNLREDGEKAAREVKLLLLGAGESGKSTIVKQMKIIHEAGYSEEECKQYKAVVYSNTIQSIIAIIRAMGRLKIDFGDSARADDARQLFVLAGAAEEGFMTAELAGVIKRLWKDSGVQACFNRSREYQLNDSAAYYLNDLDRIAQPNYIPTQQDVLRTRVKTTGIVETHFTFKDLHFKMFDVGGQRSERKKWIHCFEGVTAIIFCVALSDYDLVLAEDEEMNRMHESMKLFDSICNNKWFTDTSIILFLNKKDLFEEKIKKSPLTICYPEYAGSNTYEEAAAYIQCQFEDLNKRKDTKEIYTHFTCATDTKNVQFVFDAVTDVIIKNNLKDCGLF
wild-type heterotrimeric human Gαi1β1γ1 (human), sequence (P62873 2-340, chain 2 of 3, further chain): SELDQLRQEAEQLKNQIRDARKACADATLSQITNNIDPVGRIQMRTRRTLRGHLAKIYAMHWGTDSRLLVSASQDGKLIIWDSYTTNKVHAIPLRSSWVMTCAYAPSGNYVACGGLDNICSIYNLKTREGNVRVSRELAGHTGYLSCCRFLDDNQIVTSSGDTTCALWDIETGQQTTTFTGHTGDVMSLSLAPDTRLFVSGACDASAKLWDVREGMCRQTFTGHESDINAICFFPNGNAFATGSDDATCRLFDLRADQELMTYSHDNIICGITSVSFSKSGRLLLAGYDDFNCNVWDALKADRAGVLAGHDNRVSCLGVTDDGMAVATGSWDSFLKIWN
wild-type heterotrimeric human Gαi1β1γ1 (human), sequence (P63211 2-74, chain 3 of 3, further chain): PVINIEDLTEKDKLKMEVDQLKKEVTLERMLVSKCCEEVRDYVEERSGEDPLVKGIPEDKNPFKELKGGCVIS

Kd [1] [nM] | Kd [2] [nM] | Kd [3] [nM] | KD of the high-affinity binding mode (2:1 model) [4] [nM] | KD of the lower-affinity binding mode (2:1 model) [4] [nM] | Kd [5] [nM] | Substance
347 |  |  |  |  |  | NTS-NTSR1 complex with the 5-alanine mutant TM86V-L167R E166A/K176A/K178A/S182A/R185A (from UniProt P20789 50-390)
76 | 1400 | 236 | 5.8 | 38 | 53 | NTS-NTSR1 complex: neurotensin 8-13 bound to rat NTSR1 TM86V-L167R ΔIC3B (from UniProt P20789 50-390)

Source: PMC8176890
